Test results taken from patent US20230406922A1 (SIMCERE ZAIMING PHARMACEUTICAL, published 2023).

T1: human CD19 exon1-3-His protein (human, UniProt P15391 20-186)
T1 construct: Made in HEK293E cells, purified on nickel column; not shown: His tag
T1 sequence: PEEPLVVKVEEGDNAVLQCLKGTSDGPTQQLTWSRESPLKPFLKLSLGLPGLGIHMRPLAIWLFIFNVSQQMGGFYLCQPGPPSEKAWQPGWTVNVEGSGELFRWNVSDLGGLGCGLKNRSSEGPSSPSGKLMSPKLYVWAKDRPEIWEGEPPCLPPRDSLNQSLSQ

T2: human CD19, full length, on cells (human, UniProt P15391 20-556)
T2 construct: the endogenous CD19 of Raji cells is put under the same molecule (the cell type stands under assay); The entry holds the signal peptide; also called CHO-K1-human CD19; CHO-K1-human CD19-2C8
T2 sequence: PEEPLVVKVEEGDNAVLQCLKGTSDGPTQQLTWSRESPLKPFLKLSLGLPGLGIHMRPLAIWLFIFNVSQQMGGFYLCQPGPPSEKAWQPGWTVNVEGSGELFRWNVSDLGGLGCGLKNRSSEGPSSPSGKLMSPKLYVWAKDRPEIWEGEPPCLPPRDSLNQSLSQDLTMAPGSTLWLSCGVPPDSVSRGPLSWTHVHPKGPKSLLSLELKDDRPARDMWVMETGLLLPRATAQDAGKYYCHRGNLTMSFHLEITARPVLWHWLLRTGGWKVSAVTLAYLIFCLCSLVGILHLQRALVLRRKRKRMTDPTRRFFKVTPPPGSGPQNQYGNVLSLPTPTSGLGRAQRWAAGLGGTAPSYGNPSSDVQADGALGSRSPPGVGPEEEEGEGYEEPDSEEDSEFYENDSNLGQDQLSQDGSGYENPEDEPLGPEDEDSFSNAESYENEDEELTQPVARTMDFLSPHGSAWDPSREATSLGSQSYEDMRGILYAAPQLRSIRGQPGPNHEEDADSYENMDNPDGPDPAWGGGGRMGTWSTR

T3: human CD19-his protein (human, UniProt P15391 20-291)
T3 construct: also called recombinant human CD19-His; human CD19 protein; not shown: His tag
T3 sequence (looked up): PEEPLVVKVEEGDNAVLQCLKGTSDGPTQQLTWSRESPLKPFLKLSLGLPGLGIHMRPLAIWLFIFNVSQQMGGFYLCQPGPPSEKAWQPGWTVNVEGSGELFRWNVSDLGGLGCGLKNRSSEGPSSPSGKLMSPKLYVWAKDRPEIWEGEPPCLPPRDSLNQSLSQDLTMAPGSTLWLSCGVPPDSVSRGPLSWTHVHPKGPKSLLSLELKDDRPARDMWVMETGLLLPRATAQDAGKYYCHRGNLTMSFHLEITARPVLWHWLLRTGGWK

B1: FMC63.26-mIgG1 (antibody, V domains shown)
VH: EVTLKESGPVLVKPTETLTLTCTVSGFSLPDYGVSWIRQPPGKALEWLAVIWGSETTYYNSALKSRLTISKDTSKSQVVLTMTNMDPVDTATYYCAKHYYYGGSYAMDYWGQGTTVTVSS
VL: DIQMTQSPSSLSASVGDRVTITCRASQDISKYLNWYQQKPGGAVKLLIYHTSRLHSGVPSRFSGSGSGTDYTLTISSLQPEDFATYYCQQGNTLPYTFGGGTKVEIKR
notes: Humanized FMC63; also called FMC63-L2H6
B2: FMC63.27-mIgG1 (antibody, V domains shown)
VH: EVTLKESGPVLVKPTETLTLTCTVSGVSLPDYGVSWIRQPPGKALEWLAVIWGSETTYYNSALKSRLTISKDNSKSQVVLTMTNMDPVDTATYYCAKHYYYGGSYAMDYWGQGTTVTVSS
VL: DIQMTQSPSSLSASVGDRVTITCRASQDISKYLNWYQQKPGGAVKLLIYHTSRLHSGVPSRFSGSGSGTDYTLTISSLQPEDFATYYCQQGNTLPYTFGGGTKVEIKR
notes: Humanized FMC63; also called FMC63-L2H7
B3: FMC63.25-mIgG1 (antibody, V domains shown)
VH: EVTLKESGPVLVKPTETLTLTCTVSGFSLSDYGVSWIRQPPGKALEWLAVIWGSETTYYNSALKSRLTISKDTSKSQVVLTMTNMDPVDTATYYCAKHYYYGGSYAMDYWGQGTTVTVSS
VL: DIQMTQSPSSLSASVGDRVTITCRASQDISKYLNWYQQKPGGAVKLLIYHTSRLHSGVPSRFSGSGSGTDYTLTISSLQPEDFATYYCQQGNTLPYTFGGGTKVEIKR
notes: Humanized FMC63; also called FMC63-L2H5

How the values were obtained:
[1] = molecular target: T1, human CD19 exon1-3-His protein; test: ELISA on coated human CD19 exon1-3-His
monkey CD19-his protein = monkey CD19-his protein (monkey); test: ELISA, monkey CD19 coated
Description: After incubation for 2 h at 37° C., the plate was washed 3 times with PBS. […] After incubation for 1 h at 37° C., the plate was washed 5 times with PBS. A TMB substrate was added at 50 μL/well. After incubation at room temperature for 10 min, a stop solution (1.0 N HCl) was added at 50 μL/well. The OD450 nm values were read on an ELISA microplate reader (Multimode Plate Reader, EnSight, purchased from Perkin Elmer). […] The negative control antibody mIgG1 was an antibody against hen egg lysozyme, anti-hel-mIgG1 (purchased from Biointron, Cat. No. B118301), and the data in the table were OD450 nm values.
IgG control was mIgG1, S003-NB151-89 was a clone that is selected from a library constructed by peripheral blood collected from Alpaca immunized by human CD19-His and can bind to a monkey CD19-His protein, and was used as a positive control, and the data in the table were OD450 nm values.

[2] = molecular target: T2, human CD19, full length, on cells; test: FACS on Raji cells
Excerpt: The desired cells were expanded to a logarithmic growth phase in a T-75 cell culture flask. For adherent cells CHO-K1, the culture medium was removed by pipetting, and the cells were washed twice with a PBS buffer, digested with trypsin, and washed twice with a PBS buffer again after the digestion was stopped. For suspension cells Raji, the medium supernatant was discarded by direct centrifugation, and the cell pellet was washed twice with PBS. After cell counting of the cells obtained in the last step, the cell pellet was resuspended to 2×10⁶ cells/mL with a blocking solution [PBS+2% (w/w) BSA] and added into a 96-well FACS reaction plate at 50 μL/well. […] After the plate was centrifuged and washed 5 times with a PBS buffer, the results were assayed and analyzed by FACS (FACS Canto™, purchased from BD Biosciences). Data analysis was performed by software (CellQuest) to obtain the mean fluorescence intensity (MFI) of the cells. Then, analysis was performed by software (GraphPad Prism8), data were fitted, and EC₅₀ values were calculated.

human CD19-his protein = molecular target: T3, human CD19-his protein; test: SPR (Biacore), antibody captured on Protein A chip, human CD19-His as analyte, 1:1 Langmuir model
Description: The anti-human CD19 antibody was captured using a Protein A chip (GE Healthcare; 29-127-558). The sample and running buffer was HBS-EP+(10 mM HEPES, 150 mM NaCl, 3 mM EDTA, 0.05% surfactant P20) (GE Healthcare; BR-1006-69). The flow cell was set at 25° C. The sample block was set at 16° C. Both were pretreated with the running buffer. In each cycle, first, the test antibody was captured using the Protein A chip, and then a single concentration of CD19 antigen protein was injected. The association and dissociation processes of the antibody with the antigen protein were recorded, and finally, the chip was regenerated using Glycine pH 1.5 (GE Healthcare; BR-1003-54). The association was determined by injecting different concentrations of recombinant human CD19-His in the solution and maintaining for 240 s, wherein the flow rate was 30 μL/min, and the protein was diluted in a 1:1 dilution ratio from 200 nM (see detailed results for actual concentrations tested) to obtain 5 concentrations in total. The dissociation phase was monitored for up to 600 s and triggered by switching from the sample solution to the running buffer. The surface was regenerated by washing with 10 mM glycine solution (pH 1.5) at a flow rate of 30 μL/min for 30 s. The difference in bulk refractive index was corrected by subtracting the responses obtained from the goat anti-human Fc surface. Blank injections were also subtracted (double reference). To calculate the apparent KD and other kinetic parameters, the Langmuir 1:1 model was used.

Binder	binding result [1]	OD450 at 0.0001 nM (monkey CD19-his protein) [OD450]	OD450 at 0.001 nM (monkey CD19-his protein) [OD450]	OD450 at 0.01 nM (monkey CD19-his protein) [OD450]	OD450 at 0.10 nM (monkey CD19-his protein) [OD450]	OD450 at 1.00 nM (monkey CD19-his protein) [OD450]	OD450 at 10.00 nM (monkey CD19-his protein) [OD450]	OD450 at 100.00 nM (monkey CD19-his protein) [OD450]	EC50 [2] [pM]	maximum mean fluorescence intensity [2] [MFI]	Kd (human CD19-his protein) [pM]	koff (human CD19-his protein) [s⁻¹]	kon (human CD19-his protein) [M⁻¹ s⁻¹]
B1	no binding (tested: 100 nM)	0.05	0.05	0.05	0.05	0.05	0.06	0.1	320	8500	346	3.36e-05	97200
B2	no binding (tested: 100 nM)	0.05	0.05	0.05	0.05	0.05	0.05	0.1	300	7840	1810	0.000152	84200
B3	no binding (tested: 100 nM)	0.1	0.1	0.09	0.08	0.08	0.1	0.12	330	9170	19.5	1.8e-06	92400
